The target of this series is T1, Ets-1 ΔN331 (UniProt P27577 331-440).
T1 sequence: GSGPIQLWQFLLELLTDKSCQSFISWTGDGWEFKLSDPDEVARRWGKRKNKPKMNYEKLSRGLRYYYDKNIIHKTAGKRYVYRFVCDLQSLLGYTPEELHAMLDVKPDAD
In words: EMSA. Background: A gel shift assay detects complexes by their altered migration in electrophoresis.

B1: high affinity ETS binding site 27-mer duplex (dsDNA)
DNA 1: TCGACGGCCAAGCCGGAAGTGAGTGCC
DNA 2: TCGAGGCACTCACTTCCGGCTTGGCCG
As to B1, the binding result was “binds”.

Values taken from paper PMC4808631.
